Tested on: MS2 coat protein
Test: apparent KD of MS2 coat protein; designed switch direction (-1 OFF switch, 1 ON switch): -1; higher = weaker reporter binding
Method in brief: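 On Illumina chips, designed RNA switches with common flanks were made by stalled E. coli RNA polymerase. Titrations with SNAP-549-labelled MS2 coat protein, doubling from 0.7 or 1.5 nM to 3 µM, were done with no input, with 200 uM small-molecule ligand, or with an oligonucleotide input. Apparent KD is the median per design over clusters, from curve fits of normalised cluster fluorescence.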

[1] = Eterna round: R95, input ligand: FMN 200 uM
[2] = Eterna round: R95, input ligand: microRNA oligo, concentration not stated
[3] = Eterna round: R95, input ligand: none
[4] = input ligand: microRNA oligo, concentration not stated

Sequence	apparent KD of MS2 coat protein [1]	apparent KD of MS2 coat protein [2]	apparent KD of MS2 coat protein [3]	apparent KD of MS2 coat protein (input ligand: FMN 200 uM)	apparent KD of MS2 coat protein (input ligand: none)	apparent KD of MS2 coat protein [4]
CUCCUCAUGGCGCCUAAACACAUGAGGAUCACCCAUGUACAGGCCUUUUGCCGUCUUAUAAUAAAACCGAGGAUGCG [Lainxezabe] (puzzle: Sensor v3, turn-off variant 1)	29.6 nM	223 nM	26.8 nM			
GCGUACAGCCUAAGCAGUGACAUGAGGAUCACCCAUGUACGAACGUUUACCAAGCUUGUCUUAAUACCAUUAUAAAU [Eternabot (L1) Solution 20] (Eterna round: R97, puzzle: Sensor, turn-off variant 1)				23.7 nM	28.9 nM	
CCUCUACAUGAGGAUCACCCAUGUGAGGAUAUCUCGGAACAACCACUUAAGGCACUCCAGAGAAGGCACGUGUA [Onsote] (puzzle: Exclusion 1)		15.5 nM				
AAGGGUGCCUUUAGAACGACAUGAGGAUCACCCAUGUAGACUGAGGAUAUCUACUCCUAAGGACCGGAGAAGGCAGUGUAAUGC [Ex NG3 #63] (Eterna round: R96, puzzle: Exclusion NG 3)				72.1 nM	58.9 nM	41.4 nM
UGCAUGGUAGGAUAUACGGAACAUUAGGGUUUGUUGUGUGGACAUGAGGAUCACCCAUGUAGAAGGGCCGUGCU [JL-ex2-2.15 mat747 mod] (puzzle: Exclusion 2)		40.4 nM				
CUGGUCCGAGGAUAUAUGAUGUGAAACAUGAGGAUCACCCAUGUAAUAUUAUGGAUGAAAAUAGAAGGCGGACUAG [Mat - Exclusion 5 - JL mod - D37] (puzzle: Exclusion 5)	52.6 nM	66.1 nM	62.7 nM			
AUCCGGCAUGUAGGAUAUGGAUCCGAUUAGGAUCCAGAAGGACAUGAGGAUCACCCAUGUACAUGUAAACAGUCAUCACCGGAC [salish99_ExNG1_r04_201] (Eterna round: R96, puzzle: Exclusion NG 1)				462 nM	67.3 nM	50.2 nM
UUUUUAUAUGAAGGAUAUACUUAACAUGAGGAUCACCCAUGUGGUGUUGUGAGUGAGUGAGUUUAGUAGAAGGUCAAUUAUUUU [JMF's solution 6] (Eterna round: R96, puzzle: Exclusion NG 2)				915 nM	261 nM	246 nM
AAAUAACGAGGAUAUAGGGUCCGGAACAUGAGGAUCACCCAUGUAUUGGAAACAACGUGGUUAGAAGGCGUUGCCC [EX5 A.15] (Eterna round: R97, puzzle: Exclusion 5)				25.6 nM	28.7 nM	
AGUAACUAUCACGAAAGUGAUAGUUACAGCAAGUGAUAAACAUGAGGAUCACCCAUGUCCUCAUUUGCUCGUCUUAU [Sensor 3 - 12] (Eterna round: R96, puzzle: Sensor v3, turn-off variant 2)				15 nM	17.2 nM	386 nM
UGCAUGUCAGGAUAUCGUGCAUACAACGAAAGUUCUAUGUGCGAGAAGGGACAUGAGGAUCACCCAUGUCUUAG [Omei Ex4 A18] (Eterna round: R97, puzzle: Exclusion 4)				67.1 nM	22.6 nM	
CAGUACUGAGGAUAUACAUGAGGAUCACCCAUGUGUUCCUGCUAGGAAACUAGCAAGGGUAGAAGGCAGUACUG [Salish 065 m4] (Eterna round: R97, puzzle: Exclusion 3)				132 nM	16.4 nM	
UUAGGCUCUGGUUCGUAUUACAUGAGGAUCACCCAUGUGGCCAAGUGAGUUGGGCCGGUCAUGAUUUUGCUCGUUAU [Eternabot (L2) Solution 13] (Eterna round: R97, puzzle: Sensor, turn-off variant 1)				48.3 nM	59.4 nM	
UCGGCGCGAGGAUAUACGUUUGCUUUUUUUUGUCUUUGUGUACAUGAGGAUCACCCAUGUAGAAGGCGCGCCGC [Apr-15 SS2-22] (puzzle: Exclusion 2)		18.5 nM				
GUCUGGUUAGGAUAUACAGUGUCCACGAGUUAGUUGCCCUAACAUGAGGAUCACCCAUGUAGAAGGAGCGAGAA [Erisared] (Eterna round: R96, puzzle: Exclusion 2)				22.7 nM	16.6 nM	13.3 nM
UUUACAAGCUUAUGAUCCCACAUGAGGAUCACCCAUGUUGCUGCCGUGAGGUAGCUUUUAACAUAUGCUCGUCUUAU [JL TOV1 3.39] (Eterna round: R97, puzzle: Sensor, turn-off variant 1)				764 nM	838 nM	
AGCGUGUUAGGAUAUACACGACACUGGGUAGCGGGUGGAGGGUAGAAGGGACAUGAGGAUCACCCAUGUUCGGG [Ortere] (Eterna round: R97, puzzle: Exclusion 4)				28.5 nM	35 nM	

Sequence	apparent KD of MS2 coat protein [1]	apparent KD of MS2 coat protein [2]	apparent KD of MS2 coat protein [3]	apparent KD of MS2 coat protein (input ligand: FMN 200 uM)	apparent KD of MS2 coat protein (input ligand: none)	apparent KD of MS2 coat protein [4]
AAAGAAGAGAGAAAAUAACACAUGAGGAUCACCCAUGUGAGAAGAUGAGGGUGAUACAGGCUAUAUGCUCGUCUUAU (puzzle: Sensor v3, turn-off variant 1)	62.9 nM	350 nM	104 nM			
CAUGAUUGGGAAGGAUAUUGACCUAGUUAGCGACGAGAAGGUCCCUGUCACAUGAGGAUCACCCAUGUGAAUCUGGUGAAAGAG [Ex NG1 #100] (Eterna round: R96, puzzle: Exclusion NG 1)				29.8 nM	24.2 nM	20.4 nM
GAGAGAAUCUAGGAUAUAUCAAGAGAAGGAGAGAUAGAAGGAGGGACAUGAGGAUCACCCAUGUCUUCGUGUAG [Default title] (Eterna round: R97, puzzle: Exclusion 6)				15.6 nM	16 nM	
ACAUGAGGAUCACCCAUGUUAUGUUGGGUACUAAAUUAUUCGUAGGAUAUCGAAGCUAGUUUGUGCGAGAAGGACGCAUUUUUU [JR_ExcNG3_Sub058] (Eterna round: R96, puzzle: Exclusion NG 3)				147 nM	201 nM	176 nM
CCAGCGGACAAAGGAUAUUGCGGUGACCGGCUCGGCGUACCGAGCCUACAUGAGGAUCACCCAUGUAAGAAGGUUGUCGUAGGA [Mat - Exclusion NG 2 - Mod of JL - D73] (Eterna round: R96, puzzle: Exclusion NG 2)				56.1 nM	19.5 nM	13.2 nM
GGUUGGCGAGGAUAUACAUGAGGAUCACCCAUGUGGUCCUGAAAAAAAAAAAACCUUUGUAGAAGGCGCGGGUC [salish99_ex3_r4_035] (Eterna round: R97, puzzle: Exclusion 3)				256 nM	150 nM	
UUUUUCAAGCCAGAUCCUCACAUGAGGAUCACCCAUGUGCUCGUCUGUUUUCGCACUAUCACGUUUGUGAUAGUGCU [Level Boss var2-11] (puzzle: Sensor v3, turn-off variant 1)	297 nM	17.7 nM	307 nM			
GACCCAAGUGUUAGGAUAUCCAGUCGUGGGACCAGGGAGAAGGAACAUGAGGAUCACCCAUGUAAAAUAGAAAC [Anti] (puzzle: Brourd's mod of Exclusion 4)	137 nM	22.3 nM	22.3 nM			
CUAGCGAAUGUAGGAUAUCGGACUGUUUCAGUCUGAGAAGGACAUGAGGAUCACCCAUGUAUAGCUACGUGAGUAGCACGCUAG [JL ENG1 3.90] (Eterna round: R96, puzzle: Exclusion NG 1)				27.6 nM	21.7 nM	16.1 nM
UUUGUCUGUGUGAGGAUAUACUUUGUUUGGUCGUUGUAGAAGGCACAUGAGGAUCACCCAUGUAGUUUGUUGUG [JR_BME4_Sub014] (puzzle: Brourd's mod of Exclusion 4)		20.3 nM				
GGCAAAGUAGGAUAUACAUGAGGAUCACCCAUGUUUCCAGAUGGCGUAGGUCUUCUUUGUAGAAGGGCUAUGCC [Ananinge] (Eterna round: R97, puzzle: Exclusion 3)				20.1 nM	15.2 nM	
CUCUUGGCAGGAUAUGCUUUUUUAGACAUGAGGAUCACCCAUGUGAUGAAUAUUGGGUUCGCAGAAGGGCCUGAAU [JR_E5_Sub040] (puzzle: Exclusion 5)		48.4 nM				
UCCUUACUGGUCAGGAUAUACAUUCGCGGGUGGGUGUAGAAGGGACAUGAGGAUCACCCAUGUACGUUACAUCC [alecazam54g] (Eterna round: R97, puzzle: Brourd's mod of Exclusion 4)				18 nM	16 nM	
CUUGUGUGAGGAUAUGAAUUGCCUGGACAUACAGGCUCCUGUCAGAAGGCACAUGAGGAUCACCCAUGUGGGCA [Andiriso] (Eterna round: R97, puzzle: Exclusion 4)				98.1 nM	411 nM	
GAAAAGGUAGGAUAUACGAAAAAAAAGGGUAGAAUAAAAACACAUGAGGAUCACCCAUGUAGAAGGACCAAAAG [salish99_ex2_r3_077] (puzzle: Exclusion 2)	80.4 nM	31.8 nM	28.9 nM			
CAGUACUGAGGAUAUACAUGAGGAUCACCCAUGUGUUCCAGCUAGGAAUCUAGCAAAAGUAGAAGGCAGUACUG [salish99_ex3_r3_094x] (puzzle: Exclusion 3)		25.3 nM				
AAUAAACAUGAGGAUCACCCAUGUGAGGAUAUGCAAAUAAAUAAAUAAAUAAAUAAUAGUAGAAGGCGCAAUAA [Excls1-I] (puzzle: Exclusion 1)	34 nM	52.6 nM	63 nM			
